Here are results for two substances from US20090018083A1.

Assay [1] addresses BCL6-3C BTB domain (human BCL6 residues 5-129 with C8Q/C67R/C84N) (human) (UniProt P41182). Description: SPR, biotinylated peptide on streptavidin chip, BCL6-3C BTB domain injected.
Assay [2] has as its target GAL4-BTB^BCL6 (GAL4 DNA binding domain fused to the wild-type BCL6 BTB domain) (human). Description: cell-based or functional assay.

Chain of N-CoR^1351-1383 peptide, biotinylated, immobilised for SPR (Q60974 1351-1383): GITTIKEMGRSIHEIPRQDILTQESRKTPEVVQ

In assay [1], “N-CoR^1351-1383 peptide, biotinylated, immobilised for SPR” registered a fold stronger affinity relative to SMRT^1414-1441 of 2.5 fold.
With “full-length BCoR (from UniProt Q6W2J9 1-1721)”, the enhancement of repression in reporter assays in assay [2] is 2 to 3 fold.
